From patent publication US20240409659A1

Columns and labels:
Human FcRn (human) = Human FcRn (human) (UniProt P55899)
Human FcγRI (human) = Human FcγRI (human) (UniProt P12314)
Human FcγRIIA (human) = Human FcγRIIA (human) (UniProt P12318)
Human FcγRIIB (human) = Human FcγRIIB (human) (UniProt P31994)
[1] = biological target: Human FcγRIIIA-F158 (human) (UniProt P08637)
Human FcγRIIIB (human) = Human FcγRIIIB (human) (UniProt O75015)

Work on control IgG (7101+7103) (antibody) yielded a kon (Human FcRn (human)) of 1.98e+06 M⁻¹ s⁻¹, a kon (Human FcγRI (human)) of 289000 M⁻¹ s⁻¹ and a kon (Human FcγRIIA (human)) of 300000 M⁻¹ s⁻¹. For the same substance, the kon (Human FcγRIIB (human)) was 124000 M⁻¹ s⁻¹, the kon [1] was 880000 M⁻¹ s⁻¹ and the kon (Human FcγRIIIB (human)) was 128000 M⁻¹ s⁻¹.
